Results published in PMC5841405 (Nature Communications, 2018).

Tests used:
[1] = molecular target: the molecule itself; test: SEC-MALS; Superose 6 10/300 GL, 20 mM Tris pH 7.5, 100 mM NaCl, 1 mM DTT
[2] = molecular target: the molecule itself; test: ITC; titration of the protein into buffer (dilution); dimer to monomers; 20 mM HEPES pH 7.5, 100 mM NaCl, 0.25 mM TCEP

Row | Protein | stoichiometry N [1] | Kd [2] [µM]
1 | Hook1_(11–443) (domain or fragment, human, UniProt Q9UJC3-1 11-443, looked up, human Hook1, UniProt Q9UJC3-1, residues 11-443 (extends to the end of CC2); Dimeric by SEC-MALS; source: E. coli BL21 (DE3), purified (amylose column, TEV cleavage, gel filtration)) KLPLCDSLMIWLQTFNTASPCQDVKQLTSGVAMAQVLHQIDAAWFNESWLSRIKEDVGDNWRIKASNVKKVLQGIMSYYHEFLGQQISEALIPDLNQITECSDPVELGRLLQLILGCAINCEKKQEHIQNIMTLEESVQHVVMTAIQELMSKEILSSPPNDAVGELEQQLKRALEELQEALAEKEELRQRCEELDMQVTTLQDEKNSLVSENEMMNEKLDQLDGSFDDPNTVVAKKYFHAQLQLEQLQEENFRLEAAKDDYRVHCEELEKQLIEFQHRNDELTSLAEETRALKDEIDVLRATSDKANKLESTVEIYRQKLQDLNDLRKQVKTLQETNMMYMHNTVSLEEELKKANAARTQLETYKRQVQDLHVKLSSESKRADTLAFEMKRLEEKHEALLKEKERLIEQRDTLKETNEELRCSQVQQDHLNQT | 2 | 
2 | Hook1_(11–238) (domain or fragment, human, UniProt Q9UJC3-1 11-238, looked up, human Hook1, UniProt Q9UJC3-1, residues 11-238 (Hook domain and CC1 region); In equilibrium between dimers and monomers; source: E. coli BL21 (DE3), purified (amylose column, TEV cleavage, gel filtration)) KLPLCDSLMIWLQTFNTASPCQDVKQLTSGVAMAQVLHQIDAAWFNESWLSRIKEDVGDNWRIKASNVKKVLQGIMSYYHEFLGQQISEALIPDLNQITECSDPVELGRLLQLILGCAINCEKKQEHIQNIMTLEESVQHVVMTAIQELMSKEILSSPPNDAVGELEQQLKRALEELQEALAEKEELRQRCEELDMQVTTLQDEKNSLVSENEMMNEKLDQLDGSFDD |  | 2.1
3 | Spindly_(1–142) (domain or fragment, human, UniProt Q96EA4-1 1-142, looked up, human Spindly, UniProt Q96EA4-1, residues 1-142 (includes the CC1-Box); Cloned in pCold1; source: E. coli BL21 (DE3), purified (Ni-NTA, TEV cleavage, Superdex 75)) MEADIITNLRCRLKEAEEERLKAAQYGLQLVESQNELQNQLDKCRNEMMTMTESYEQEKYTLQREVELKSRMLESLSCECEAIKQQQKMHLEKLEEQLSRSHGQEVNELKTKIEKLKVELDEARLSEKQLKHQVDHQKELLS | 2 | 
4 | BICD2_(1–98) (domain or fragment, human, UniProt Q8TD16-1 1-98, looked up, human BICD2, UniProt Q8TD16-1, residues 1-98 (includes the CC1-Box); Purified 'as described above' (pMAL-c2x); source: E. coli BL21 (DE3), purified (amylose column, TEV cleavage, gel filtration)) MSAPSEEEEYARLVMEAQPEWLRAEVKRLSHELAETTREKIQAAEYGLAVLEEKHQLKLQFEELEVDYEAIRSEMEQLKEAFGQAHTNHKKVAADGES | 2 | 
